Results on one molecule are retold here after US20060239990A1, “Protein Arginine N-Methyltransferase 2 (PRMT-2)” (priority 2003, published 2006).

One assay deals with HIV-1 LTR. Put plainly: HIV-1 reporter transcription, transient co-transfection. It is filed as cell-based, human. As to the method: Cell culture, transfection, and reporter gene assays. The E1A-transformed, human kidney cell line, 293, and NIH-3T3 cells were maintained in Dulbecco's Modified Eagle Medium (DMEM) supplemented with 10% fetal calf serum and penicillin-streptomycin at 37° C. in 5% carbon dioxide in tissue culture grade Petri dishes. PRMT-2−/− mouse embryo fibroblasts (MEFs) and wild type MEFs were prepared from day 13.5 embryos and maintained in DMEM supplemented with 10% fetal calf serum. MEFs at passage 4 were used in this experiment. Lipofectamine Plus™ reagent (Boehringer Mannheim) was used to transfect both 293 and NIH-3T3 cells according to directions from the manufacturer. […] TNF-α stimulation of cells was done using recombinant TNF-α (200 U/ml) for 12 hours. Transfected cells were harvested at 36 hours, and CAT activity was assayed on 10 to 100 μg of protein from whole cell extracts. CAT assays were performed essentially as described in Leung, K. & Nabel, G. J. Nature 333, 776-778 (1988). To analyze the κB-reporter activity in MEFs, cells were transfected with the reporter (2×kB-Luc) and PRL-TK vector (Promega) using FuGENE6 transfection reagent (Roche). Luciferase activity was analyzed by Dual-Luciferase Reporter Assay System (Promega).
To determine whether PRMT-1, 2 or 3 could affect NF-κB function, their potential to regulate effects on transcription of the human immunodeficiency virus type 1 (HIV-1) was examined. Transient co-transfections were performed using PRMT1, PRMT2 and PRMT3 expression plasmids with an HIV-1 reporter plasmid in the human renal epithelial cell line, 293T.
To determine its dependence on NF-κB, human immunodeficiency virus type 1 (HIV-1) reporter plasmids with wild-type (WT) or mutant (ΔκB) sites were co-transfected transiently with control or PRMT2 expression plasmids in the different cell lines. […] The KB effect was dose-dependent and was also observed with other inducers of NF-κB, including phorbol […] (PMA) (FIG. 2B, right panel).

For another assay, the system named is STAT3. Put plainly: STAT3 arginine methylation in transfected HEK293 cells. It is filed as cell-based. The note with it: 24 hr after transfection, α-metR immunoblot. As to the method:
Vascular smooth muscle cells (VSMC) were prepared from the thoracic aorta of 12-week-old-male wild-type and PRMT-2^−/− mice by the explant method. Mouse embryo fibroblasts (MEFs) were prepared from 13.5-day wild-type and PRMT-2^−/− embryos. VSMCs and MEFs were cultured in Dulbecco's modified Eagle's medium (DMEM) containing 10% fetal calf serum (FCS) at 37° C. in a humidified atmosphere of 95% air-5% CO2. The integrity of PRMT-2 expression in the established VSMCs and MEFs lines was confirmed by Western and immunofluorescence analysis (data not shown). Quiescent VSMC (3-5th passages) that had been serum-starved for 48 hr were used in the following experiments. HEK293 cells were also grown in DMEM plus 10% FCS and were transiently transfected with FuGENE6 transfection reagent (Roche Applied Science, Indianapolis, Ind.) according to the manufacture's protocol. For each transfection, 2 μg of expression construct for mouse PRMT-2 and 8 μg for mouse STAT3 were used. After 24-48 hr of transfection, cells were used for the following experiments.
Immunoprecipitation of STAT3 was performed as follows. […]

B1: PRMT2: human PRMT-2 polypeptide, SEQ ID NO:2, expressed from pVR1012 vector with HA-tag (protein, listed as Homo sapiens)
chain: MATSGDCPRSESQGEEPAECSEAGLLQEGVQPEEFVAIADYAATDETQLSFLRGEKILILRQTTADWWWGERAGCCGYIPANHVGKHVDEYDPEDTWQDEEYFGSYGTLKLHLEMLADQPRTTKYHSVILQNKESLTDKVILDVGCGTGIISLFCAHYARPRAVYAVEASEMAQHTGQLVLQNGFADIITVYQQKVEDVVLPEKVDVLVSEWMGTCLLFEFMIESILYARDAWLKEDGVIWPTMAALHLVPCSADKDYRSKVLFWDNAYEFNLSALKSLAVKEFFSKPKYNHILKPEDCLSEPCTILQLDMRTVQISDLETLRGELRFDIRKAGTLHGFTAWFSVHFQSLQEGQPPQVLSTGPFHPTTHWKQTLFMMDDPVPVHTGDVVTGSVVLQRNPVWRRHMSVALSWAVTSRQDPTSQKVGEKVFPIWR
modifications: HA tag
Turning to B1, in the assay on HIV-1 LTR (293T cells, expression plasmid co-transfected with HIV-1 reporter plasmid), the “inhibition of HIV-1 transcription” value is recorded as “about 50 fold”. In addition, the “HIV-1 transcription from wild-type reporter” value in the assay on HIV-1 LTR (293 cells, basal and TNF-α-dependent) is “significantly inhibited both basal and TNF-α-dependent HIV-1 transcription”. For the same molecule, the Stat3 methylation result in the assay with STAT3 is “endogenous methylated STAT3 was detected”.
